The record followed here is the NTF2 design screens of Basanta et al. (2020).

This data set is described as follows: protease stability score; higher = more stable; yeast display proteolysis, trypsin and chymotrypsin.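 Also: log10 excess protease needed over predicted unfolded state with 0 meaning unfolded.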

Turning to “DEDKVNEFMRHFLDVFETGNEKDVKKMADPNAKIEYGDKTLHGRENLRKVIADWRKRVDRIQIEHVDLQGNKARIIVVLNINGRNIRVDIDVNVHNGEIKSIRFEFTDPKTLQRATS”, the protease stability score worked out at 0.649.
In turn, “DEDKVRELVKKAFKAIVNGNEEEVRKLLDPNVKYKYVDKEFEGEEVAKFLVEMVRKLGAKVETEKTHIEGNTARATFVYKLGDQKVQTHAEVKYEGDKVKEVRVEMTDEDKKQLHRG” showed a protease stability score of 1.17.
In the case of “DEDKVRKFQEYIEAYRRGDEQKLLKLMDPNVHVEIGDRRYHGHEDMEKILHKEIREIRVDVKIQSIEVRNGHITAHLVMSVNVNGHPVQMQFTVVIEMTNGKIKSIKYRVSEEQKRRFDS”, the protease stability score was found to be 0.49.
To “DEDLAKRFVTFIKIMLNGDPDKLEKMMDENATVNVGDRRLTGHETIAKDLHRLINESRVHIQLRDFDVRPGRVELEFEAERKHDGRPHTSRFIVIVKDHNGKMVKIVVKQTK” belongs 1.02.
Then “DEDLARRLAEEMVKKATHGDEDTVRELIDPNVKFRYGDKDVEGRENFATELAEDMRTADHVHLKQVTIRGDTVQIDMRMVFDGSEDRHDLRLRAHNGKVQEVTIDQG”, with -0.112.
Then “DEDLDKQAQEFIHAMQEGDPQRLSEQMDPNARFHVGEKNIHGKEEVMRDFQRTVDQAEIEFKEYSVRAEPGRVRIKLHYVDNNDGRPHSKVQDMVIVFHNGKLVVIDVNDSQ”, with 0.236; and “DEDLERIIRRFMTALETGDPEELKKQMDENVRVQVGDKVLNGREEAAKHWTKVRDDLRIKIDTFHVENNGNRIDLSVDAEAEHNGRPQRYTLHMKAQVHNGKIKNATFTREQ”, with 0.868.
“DEDLERKAKKYIDALDTGDPDEVSKLVDPNVKFMYGDKTFHGRDQLRRIIQRISDQQRVHVDIKTFSAKGDKVEIKARIEVETDGRPRQFHAIYRMRVHNGKITHISVEMRQ” registered a protease stability score of 1.23.
To “DEDLERKVKELMEVLKSGDESKWMEMVDPNARVQVGDTEIHGRENRREDLKRHKEDSRLDLKSYNVRVHNGQVEVHMSYTYEHNGQPRTSQATARFQLHNGRITEVNVNTTK” belongs -0.309.
Then “DEDLFRRLSELMHAVTNGDEEELVKQADKDARIQYGDKVFHGMDEAARELVRQQKEIRQSWEIKSWDHQGDKVRVTIKNSQDHDGRPHSNRIDVEVKQRNGKVTTARFQTHP”, with 0.148; and “DEDLIELAKELMHALQEGDEKRLQDLIDPNASAQIGDHRVHGMDEVLSTLVEHQHNQRVRIDRMEADVHNGTARVRIDQQFEHNGNPDKKVLVYEMTANNGKLKHYKLDEDK”, with 0.268.
Turning to “DEDLKHLFHTFQKVLEEGNREKLRRLADENVTVSYGDKRVHGMESFARQVKEERDEQRVVINIRKVDVSGDQVRVVADVEREHNGKPDRKNLVMEANAEGDKFREVKYTEHG”, the protease stability score was found to be 0.151.
Then “DEDLKKRFKRMLRNLQNNNEENAHELMDPNARWRYGDKVLHGHEQLIEEWKRIHDRMRVEYKSVEVTASGDKVVVEIVFTRHKNGSPDSDNTRWKAVYNNGKLKDMMVTEDG”, with 0.637; and “DEDLKQQFDELVEIKKNGDEDRLVEQADENVKAQVGDKDVHGMKEIAHNIRHTVERIRVEIKSMEVDAQGNRVHVENDFVENNNGKPHRKVVDMKFIFHNGTLKSYTERDDK”, with -0.608.
Then “DEDLLKQADRWVKNLTRGNFKDLQKLFPPDATVQYGDNHIHGMEKISHEWKKEQEEMRIRVDRVQNEHQGEKAVVDLHYKVTHNGKPEENVVILFIEKHNGHMIFMKIQKTG”, with 0.739; and “DEDLLKQLHTYLRAHETGDRSRLRKLMDPNAEVRIGNHELHGREEILTQQVEEAHKITQYFEIDSVEVRPNSIKVKAHVSMNVNGQPFRTEVEYDVRIRNGRIQEITYRLPEEFLREVNR”, with -0.229; and “DEDLLRKIKQLLRAFEDNNEDQLRKNADPNARFVYGDKHIHGMEEAMRHQVTRYKEIRIERQIDTMSVTNGRANVQFTVVENHNGRPDTFHVQVDIKAHNGRVHTIEYEIHK”, with 0.387.
For the sequence “DEDLLRRAEQFIKAELRNNPDRAKELADPNVKFNIGDKEIHGMDDFRRYLHKKVKNMKWRAKVTHMKVQGNHAKLHVKVTLDINGRPFDVTRDILIVFHNGKIRDVNVRVDPEDKKRQKE”, the protease stability score stood at 1.39.
Then “DEDLMERLKTILDAQSNGNPDELRRMFDPNAKIDIGDKEYHGMENFASNQHKRVKHIEQKYQFKSISAEGDKLDVRLRAQQVVNGTPRKYEYNLTARMSNGKVKSMEVQIPEEVLKRLEK”, with -0.219; and “DEDLMRKFVERVKTGDPKDLVDQLDENAHQVVGETRVHGRSQFEKLAKKLEEQVDHIKVRSVKQENGRVDMDVVVNVNGQNNRYVLRVDVHNGKIKHMEVEFTDEEDEKAYRKALG”, with 0.095.
“DEDLMTQIVKRYIDAWREGDRDELMKLADENVHIQVGDQTYHGQEQWRELVKKHKDNADHMDVKSWNIRGEKVHVHYWARFNGVEIEDTVEIQYENGRIIDIQFDPDQQRKEDK” gave a protease stability score of 0.676.
Then “DEDLNDMAVRMAEILNEGNEDEYNKQIDPHARFVIGDKEYSGHEHFKKEIQRQNKEMRVTVNLHRWDATNGEMHLVIHYSWNVNGRPTTIHVHFRITARGDKFKQIDVHMDPDELRRVDS”, with 0.765.
To “DEDLQEFAERLLQVNRTGDEDQFRRNVDPNAKMVVGDKEYHGRDELARFFRHLREHARFELNVKSVSVEGDTVEIHFEARVDINGKPLTYEASMSMRVEGDRVKRITFRMDPDQRRKAHS” belongs 1.11; to “DEDLQKQAERFLHAVNTGNEEQIHRLVDKDARMQYGDRRVHGRERIATWYRQMKEEIRQDIEVRTVRVRNGRVEVDARVERHVNGRPIDNKFHMSIQIENGKVKSITAHLDPNVLQEIKR”, 1.17; to “DEDLRRQAETMVDNINTNNERELEKLFDPNVHVVVGDRRINGTEHLRDYWRRIRDHMRLEVNLRRISVHNGKISAHVDVVREHNGKPDEDTFRMSAVVRNGKFHKMRVEKDG”, 1.37.
For the sequence “DEDLSRNFHQFIEALKQNDTDRMKELIDPNARMRYGDKQLHGRENILNYWKKLNDQARVDLDLKSVRNDENHIRYNYKMRVHVNGRPVEDTATAEIRATNGRIVDIYIDFDPEKLRQIES”, the protease stability score is 2.34.
To “DEDLTKRFRQLIKAQETGDPDKIKNQVDKDVHAHVGDKTVSGREKLATQIHRDVQHSHFKVHVDNVRNHGNKVEVDARMVMNINGRPVTFTVNMDFTFHDGTIHRIKMSISEEDKKKTDS” belongs 0.793; to “DEDLVERVQDLLEAERENDEDTVSKMVDPNVKFSYGNRELHGREQWTKHVAEKQKQMRIQIDIDSYSVQGNHATFTAKITVHINGKPMSDTVTFQIVFSNGKVEEVRMRIDPRFQREVES”, 0.016.
To “DEDMSRKAKKFWKAETDGNPQKLKTLIDPNARAHVGDQDLHGRRKIVHWLKHFRDTMRQHWTRYSFDAHGNKVDNRFVVVLQTNGKPERRRNKLTLVFKNGRLVSMRDETKG” belongs 0.128; to “DEDMYEQYESILHNERTGNEDEWVENIDPNARIRVGDKEVHGMEDNAREKRRHQEEQRVHFDIKRYSIHNGELDVTAKMRRDVNGQPAQDDVKVRIVVENGRIKEQDQDFDEDDDRRQKK”, -0.037; to “DEDNAERVHTALDILERGNPEEVKKMFRDDVRATIGDTVIHGMTNFAHYMQRLMDHARVNITIRSWSVKNGRVEIDAEIHANHNGQPYHDRFKIKAEVTNGRFKYLQYDIDPDFLRDMTK”, 1.25.
To “DEDNEKELQREIVRVLKHNDWERFTQLIDEDVRLEYGDQRYHGREQVSKHFTDLAQEVDSVEVTSVKAHNGKINITAILNHNGTNHRYNIRFEFRNGRLKVVRYDHT” belongs 1.85.
“DEDNHRKAKKLIDAENTGDPTQVRKLADPNVHVEYGDEHVHGRDEIANELSKKAKEIRFRVDRLSFSVHNGTFSATQRMKENDNGRPEEFRVERSMELHNGKFVSIVQKKKS” yielded a protease stability score of -0.071.
To “DEDNLRDAMEVYHQNDPDKAVKMADEDVKVVVGDRKWNGREDFEEAMRTFNQRVDHIEYKSMDVSNGQISIDVVINVDGQNARFILNIEIHNGKIKSLRYQWRNENVRQVLTEIFQ” belongs 0.795.
To “DEDNMHRLKEFLDNLNQGDEERLVELADEDVKLVYGEKRYHGREELTKTLETQRDQMRVDYKVKSMSVSNGRVHADIEASNTKNGKPKRFKVRVHAEFHNGRLQVYNQQEDK” belongs 0.42.
In turn, “DEDNQREANRAAKTGDFKRMAEKADPNVSVTVGDKEVKGREEVHKFVQRFDDQVDDLDIKSFRVEGDKVHVQATAVFNGKKIEFSFSARIHNGKLTKMTVKVRDPRQQKKLQKQWE” displayed a protease stability score of 0.004.
To “DEDNQTQTAERVVEIMRTGDEHKMRNLADENVKIQIGDKKYRGRDEASKQAKELRDRVDRLRVVRFDVHGNKVRIVMQFKYNGVTVNFKFTVEIHNGRVKSMEMRYTNPEDLKRARS” belongs 0.182; to “DEDNTDRARKFFEALRTNDPDQVSSLLDPNARVHIGDRVINGREEVRTHIKHLTDKIRFQIQKVTVHVSNGRISAHVTFEVEVNGRPDRFNMEVVARVENGKIKVMQFKISEDQMQKLRN”, 1.39; to “DEDNVKRAEHFAEALITGNPEEIQKQVDPNAKIKVGEQEVHGMESYAKEVHEENKEMHIEIRHISATAQGDRARLEMRYVINSNGRPQHVVQEYTIKLHNGRAQEIEVKDDG”, 0.282.
To “DEDQAKEQVDNARKVINQGNFSEAVKTADPNVKAAYGEKRLEGRQVLHTYQEVFQRRVDHVHVRRVDLKGEKATIKAELTINGRTTTMRMVVEVSNGRLKNFYVKYK” belongs 0.145; to “DEDQAKTIEELWRTNDFDTLATQADKDVHNHVGDKKIHGRTQHTQAQERIRRAVDHFDVKRVNIQGNKVDIDVVMEVNGKNVHMTVVITVHNGKIKHMSMRVRDEEVKKLFEEMEQ”, 0.527.
To “DEDQAQKLIDKMTEAMFKNDEETIRKVGKEDVEVKNADEEYKGVDTIVDLARKYKEQGIEFHLEQVHKEGDQVKFTAVVHVADRTVKVEVKYKADNGHVERTEVEWSQEVKKAFQQH” belongs 0.97; to “DEDQARLAIRFMEAWLEGNEDELKNQADPNAHFQVGDKHVTGMDEAAKELKTQLTEIRWDYKSVRIDTEEGRANLDMTVRMEVNGKPVEHSQKIEVERHNGQLSVIDQQFDNDTWDEVKS”, -0.393.
Take “DEDQATEVAELVKSNDWENLRRNIDPNARMHIGDRTLHGREEIAEVFRRIVEQADHQRLHHLEVEGDTIVIRMTVNINGKEVDFRMKIQFHNGKIKEVRVDFTDPKERKVFDKAAR”: the protease stability score was 1.28.
To “DEDQEDLIRRLIKALDTGDPEQARKNADKDARFNYGDQEIHGMQTFVDDLEKRKRQMHVRITRIDVRVHNGQAKQSVNEVTNHNGRPQSRVQDRRIQITNGRVKKMENDDDG” belongs -0.316; to “DEDQELRSLAEDAVRAMQSNNPDDFVNLFPENARINIGDKNIHGREEIKKHAQEVNTKVDRFSVTIEHIHVHNGKAEFTVDFVMNINGRTERRRASFRIDRIGDKVRIHSADVK”, 0.571.
To “DEDQHRRWQELMKAIETGDPERIKELMDPNAEFVVGDKHVRGREKYAREVHRELRTMRVEFRILSLRVQGDRLLADVEVVTHDDGKPTSHRFKLEVKAENGTIRVFRNQSVP” belongs 0.155.
